The supplement of paper PMC9170038

System: MS2 coat protein
Assay: apparent KD of MS2 coat protein; designed switch direction (-1 OFF switch, 1 ON switch): -1; higher = weaker reporter binding
Method in brief: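 Transcription of designed RNA switches on Illumina chips was done by stalled E. coli RNA polymerase. SNAP-549-labelled MS2 coat protein was then titrated in doubling steps from 0.7 or 1.5 nM to 3 µM, with steps of 0.8–1.5 h at the lowest and 10–20 min at the highest concentration. The per-design median over clusters of curve-fitted normalised fluorescence is reported as apparent KD.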

[1] = Eterna round: R95, input ligand: FMN 200 uM
[2] = Eterna round: R95, input ligand: microRNA oligo, concentration not stated
[3] = Eterna round: R95, input ligand: none
[4] = input ligand: microRNA oligo, concentration not stated

Row | Sequence | apparent KD of MS2 coat protein [1] | apparent KD of MS2 coat protein [2] | apparent KD of MS2 coat protein [3] | apparent KD of MS2 coat protein (input ligand: FMN 200 uM) | apparent KD of MS2 coat protein (input ligand: none) | apparent KD of MS2 coat protein [4]
1 | CUUAGCCUAAAAUCACGCAAGCUUUUUGCUUGUCUUAAGACAUGAGGAUCACCCAUGUCCGGGCUGAACUUAUGGAA [Zarebe] (puzzle: Sensor v3, turn-off variant 2) | 17.5 nM | 20.4 nM | 17.1 nM | – | – | –
2 | GGUCAAGAGCAGAUCCGCGCUGCCAUUGACCGCUCAUUUACAUGAGGAUCACCCAUGUUUUUUGCUCGUCUUACUAC [Inedsoinin] (puzzle: Sensor v3, turn-off variant 2) | 18.2 nM | 57.9 nM | 20.3 nM | – | – | –
3 | GAAAAUGUGGAGGAUAUCGACUUCGAAAGAAGUCGAGAAGGCCACACAUGAGGAUCACCCAUGUGUUGCUUAUA [Omei Ex6 H7] (Eterna round: R97, puzzle: Exclusion 6) | – | – | – | 20.7 nM | 16 nM | –
4 | ACCAGCAUACGGAGAUCCAACAUGAGGAUCACCCAUGUCUGGAAAGCUUUUUGCUUGUCUUAUCCUCCUCUGUGUGC [Design #2] (Eterna round: R97, puzzle: Sensor, turn-off variant 1) | – | – | – | 17.5 nM | 16.6 nM | –
5 | GAGGCAUGCUGAGGUCCACACAUGAGGAUCACCCAUGUAAUGACAAGCUUUUUCCUCGUCUUAUCGCUAUCGCGUUC [Dilaenla] (Eterna round: R96, puzzle: Sensor v3, turn-off variant 1) | – | – | – | 13.1 nM | 16.3 nM | 22.2 nM
6 | AAGAAACAUGAGGAUCACCCAUGUGAGGAUAUGUAAAAUAAAAUAAAAUAAAGAAUAAACAGAAGGCACAAAGG [Mat - Mod of Hog D24] (puzzle: Exclusion 1) | 77.9 nM | 64.5 nM | 49.7 nM | – | – | –
7 | GUGUACAGAGGAUAUACUUGAAUCUAGCGAAGCUAGGUUCGACAUGAGGAUCACCCAUGUAGAAGGCUGUACAC [Dot plot directed A v2] (puzzle: Exclusion 2) | – | 12.4 nM | – | – | – | –
8 | AAAUAAUCAGGAUAUACAUGAGGAUCACCCAUGUACCUCUUGUACGAGGGCCGCCCGUGUAGAAGGGAUGACAA [Arralara] (puzzle: Exclusion 3) | 72.6 nM | 40.1 nM | 40 nM | – | – | –
9 | UAUUAAUGCAAGGAUAUGCUUUUAAUUUUUUUUGCAGAAGGUGCAACAUGAGGAUCACCCAUGUUUGAGGGUAU [JR_E6_Sub030] (puzzle: Exclusion 6) | 68.4 nM | 59 nM | 53.8 nM | – | – | –
10 | GAUAAGGUAGGAUAUACGAAGAAAGAGGGUAGUAAUAAUACACAUGAGGAUCACCCAUGUAGAAGGACCAAGAG [Mat - Exclusion 2 - Mod of my Tesla design - D44] (puzzle: Exclusion 2) | 38.7 nM | 23 nM | 22.1 nM | – | – | –
11 | UUAAUGUGAGGAUAUCAAGAGAGAAAGAGUAAUGGUAAAUAUGAGAAGGCACAUGAGGAUCACCCAUGUUCUUC [Mat - Exclusion 4 - Mod of JL - D60] (puzzle: Exclusion 4) | – | 14.2 nM | – | – | – | –
12 | GACCCAGAUGUAAGGAUAUCGAGCUGCGUCAGGUUCGAGAAGGUACAUGAGGAUCACCCAUGUGCAAGCACUCC [BmEX4 B.18] (Eterna round: R97, puzzle: Brourd's mod of Exclusion 4) | – | – | – | 32.8 nM | 17.4 nM | –
13 | UUUUAACAUGAGGAUCACCCAUGUCAGGAUAUGGUAUUUUUUUUUUUUUUUUUUUUUUCCAGAAGGGACAUUUU [My solution] (puzzle: Exclusion 1) | 16.5 nM | 11.3 nM | 15.9 nM | – | – | –
14 | AGUACUAUGCGAGCUGACUUGCGUAGUGCAGCAGGUGUUACAUGAGGAUCACCCAUGUCCUCAUUUGCUCGUCUUAU [Mat - Sensor v3 - Turn-off var 2 - D6] (puzzle: Sensor v3, turn-off variant 2) | 271 nM | 193 nM | 247 nM | – | – | –
15 | AGUAACAGAGGAUAUACUGUUUUAUGUGUUUAUUAUUUUAAACAUGAGGAUCACCCAUGUAGAAGGCUGAAUAA [JMF 82] (puzzle: Exclusion 2) | – | 40.3 nM | – | – | – | –
16 | UCACAGGCUGUGGGUGGUGACAUGAGGAUCACCCAUGUUUUGCUCGUCUUGUGCCGGGCCCGGCGCCCGGGCCCGGC [-41.8, -69.2, A 10%] (Eterna round: R97, puzzle: Sensor, turn-off variant 1) | – | – | – | 575 nM | 1210 nM | –
17 | AAGAACGUGCAAGGAUAUCUCCACCAAACCGGCAGAGAAGGUGCACAUGAGGAUCACCCAUGUGACCUAAGGCUCUUAUGAGCC [Teismace] (Eterna round: R96, puzzle: Exclusion NG 1) | – | – | – | 46.6 nM | 18.5 nM | 14.6 nM
18 | CUUUAGUGAGGAUAUCAGUGGUAAUACAAUAGUAUUACUACUGAGAAGGCACAUGAGGAUCACCCAUGUUCCUC [Mat - Exclusion 4 - Mod of Omei - D84] (puzzle: Exclusion 4) | – | 26.4 nM | – | – | – | –

Row | Sequence | apparent KD of MS2 coat protein [1] | apparent KD of MS2 coat protein [2] | apparent KD of MS2 coat protein [3] | apparent KD of MS2 coat protein (input ligand: FMN 200 uM) | apparent KD of MS2 coat protein (input ligand: none) | apparent KD of MS2 coat protein [4]
19 | UUUAUUAAUUAAUAUAAUAAGAUCACAUGAGGAUCACCCAUGUAGGAUAUCAGCUCGUGUAGAGCUGAGAAGGACAUAAUUAUA [ExNG3/1-B3] (Eterna round: R96, puzzle: Exclusion NG 3) | – | – | – | 108 nM | 34.3 nM | 27 nM
20 | UGAAUGUGAGGAUAUGGUGAGUAGUGCCAGAGCGCUGCUCACCAGAAGGCACAUGAGGAUCACCCAUGUACUUG [Mat - Exclusion 4 - Mod of JL - D18] (puzzle: Exclusion 4) | – | 47.8 nM | – | – | – | –
21 | GCGGUACAUGAGGAUCACCCAUGUUAGGAUAUUCUACGUCUCUAAUCUGAAACGCAAGGAAGAAGGAGCGUGGG [Eternabot (Original) Solution 21] (Eterna round: R97, puzzle: Exclusion 1) | – | – | – | 83.7 nM | 28.2 nM | –
22 | GGCCCAUGAGGAUAUCAGUCUGGAUCAGACAAGAUCCUGACUGAGAAGGCACAUGAGGAUCACCCAUGUAGGCC [Mat - Exclusion 4 - Eli Mod - D53] (Eterna round: R97, puzzle: Exclusion 4) | – | – | – | 18.3 nM | 18.7 nM | –
23 | GCCGAAAAUGAGAGGAUAUGCCUAUGGAUACGUAGGCAGAAGGCACAUGAGGAUCACCCAUGUUCCUCAACGGC [JL-BMX4-4.26 Eli mod] (Eterna round: R97, puzzle: Brourd's mod of Exclusion 4) | – | – | – | 19.4 nM | 14.6 nM | –
24 | GCCGAUUAAGUCAGGAUAUACCUAUGGAUACAUAGGUAGAAGGGACAUGAGGAUCACCCAUGUUCCUCAGCGGC [Fiskers BMX 4 - 14] (puzzle: Brourd's mod of Exclusion 4) | – | 14.5 nM | – | – | – | –
25 | UUUUAACAUGAGGAUCACCCAUGUGAGGAUAUCGAAAUUUAUAUUAAUAUUUAUUAAACGAGAAGGCACAUUUU [JMF 59] (puzzle: Exclusion 1) | – | 82 nM | – | – | – | –
26 | UACAUGAGGAUCACCCAUGUUUUGUCGUGUAUGGUAUUUAUCUAGGAUAUCAUUUUAUUUGGUUAUGAGAAGGAGAAUAUUAAU [JMF's solution 92] (Eterna round: R96, puzzle: Exclusion NG 3) | – | – | – | 24.1 nM | 30.5 nM | 22.7 nM
27 | UGUUGUCGCGCAGGAUAUGAGGAUCACCCAUAUAAGGAUAUCGAAAGAGAAGGUCUGAGGAUUACCCAGAAGGGCGGGACAACU [pwkr exNG2 2xF5 2xFMN.30] (Eterna round: R96, puzzle: Exclusion NG 2) | – | – | – | 309 nM | 70.1 nM | 43.8 nM
28 | UCCCGAUACUAGGAUAUGAGUUCACAGGAACGAUCAGAAGGAGUUACAUGAGGAUCACCCAUGUGGGUGUAUUG [Eternabot (L1) Solution 37] (Eterna round: R97, puzzle: Exclusion 6) | – | – | – | 120 nM | 237 nM | –
29 | GCUGUCACCGUUAGGAUAUGUGAUUAAAUAUGAUCGCAGAAGGAACAUGAGGAUCACCCAUGUCGAUCCGUCCG [Eternabot (L1) Solution 36] (Eterna round: R97, puzzle: Brourd's mod of Exclusion 4) | – | – | – | 34.8 nM | 23.1 nM | –
30 | ACAUGAGGAUCACCCAUGUAAACAUGAUGGCUGAUGUAGAGCUAGGAUAUGAGUGGCUUUCUAUCUCAGAAGGAGCUUGACUGG [Deportation 43 - Jieux - Exclusion NG 3] (Eterna round: R96, puzzle: Exclusion NG 3) | – | – | – | 30.8 nM | 35.7 nM | 22.8 nM
31 | GUUGUUGCGCAGGAUAUCCAGCGACUUGUCGAAGGAGAAGGGCGCACAUGAGGAUCACCCAUGUGCCUCUGUAA [EX6 B.20] (Eterna round: R97, puzzle: Exclusion 6) | – | – | – | 43 nM | 18.6 nM | –
32 | AACUUGUAAGGAUAUACAUGAGGAUCACCCAUGUGUCCCACGAACCGACAGGUCGUCUGUAGAAGGUGCAACAU [Eternabot (L1) Solution 88] (Eterna round: R97, puzzle: Exclusion 3) | – | – | – | 29 nM | 27.4 nM | –
33 | AGCUGUGGCCGAGGAUAUCACGAACCAUGGAAAACCAUGGAACUCCUACAUGAGGAUCACCCAUGUGAGAAGGCGGUCUCAGCA [Eli eng2 - 020] (Eterna round: R96, puzzle: Exclusion NG 2) | – | – | – | 109 nM | 52.1 nM | 33.4 nM
34 | UAUACUAGAUAGGAUAUACUAUAUAUAUUAUUCGUAGAAGGAUCUACAUGAGGAUCACCCAUGUUAACAGCAGU [JR_E6_Sub006] (puzzle: Exclusion 6) | – | 37.2 nM | – | – | – | –
35 | GAGUGACAUGAGGAUCACCCAUGUGAGGAUAUCGGACGGACCAAAUUAACAAUUUUUGCGAGAAGGCACAUCGG [Exclusion 1 V18] (puzzle: Exclusion 1) | – | 51.9 nM | – | – | – | –
